# From publication PMC4480132, “MAF1 represses CDKN1A through a Pol III-dependent mechanism”
# T1: MAF1 (His-tagged, Fitzgerald 80R-1955) (UniProt Q9H063 1-256)
# T1 sequence: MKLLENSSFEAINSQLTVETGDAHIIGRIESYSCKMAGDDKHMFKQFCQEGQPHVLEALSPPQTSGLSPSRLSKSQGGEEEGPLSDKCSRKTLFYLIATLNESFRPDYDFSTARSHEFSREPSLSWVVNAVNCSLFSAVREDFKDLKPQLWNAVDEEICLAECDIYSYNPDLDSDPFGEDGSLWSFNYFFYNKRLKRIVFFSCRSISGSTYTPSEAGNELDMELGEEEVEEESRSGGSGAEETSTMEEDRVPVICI
# B1: p21 A-box probe (CDKN1A MIR3) (dsDNA)
# DNA 1: AATCAACAACTTTGTATACTTAAGTTCAGTGGACCTCAATTTCCTCATCTGTGAAATAAA
# DNA 2: TTTATTTCACAGATGAGGAAATTGAGGTCCACTGAACTTAAGTATACAAAGTTGTTGATT
# Molecular target: T1, MAF1 (His-tagged, Fitzgerald 80R-1955)
# Assay: colorimetric DNA-protein binding assay (ab117139); 40 ng biotin probe, 500 ng MAF1; IP-qPCR: 20 mM HEPES pH 7.6, 150 mM NaCl, 0.25 mM EDTA, 10% glycerol, 0.2% NP40, 1 mM DTT, 200 ng BSA, 50 ul, 20 ng DNA, 400 ng MAF1, 4 C/ice; colorimetric: Abcam ab117139 kit conditions
# Conditions: protein: commercial; tags: His6; label: 5' biotin (probe)
binder,measurement,value
B1,binding result,binds
